Results taken from US20060121042A1 (AstraZeneca / MedImmune, published 2006).

Tests used:
r murine EphA4 = biological target: T1, r murine EphA4 (mouse, UniProt Q03137); test: activity ELISA, IgG on coated antigen
T1 construct: recombinant Fc fusion (R&D Systems); also called rmuEphA4-Fc; mEphA4

r murine EphA7 = biological target: T2, r murine EphA7 (mouse, UniProt Q61772); test: activity ELISA, IgG on coated antigen
T2 construct: recombinant Fc fusion (R&D Systems); also called rmuEphA7-Fc; mEphA7
T2 sequence (receptor-Fc fusion, looked up): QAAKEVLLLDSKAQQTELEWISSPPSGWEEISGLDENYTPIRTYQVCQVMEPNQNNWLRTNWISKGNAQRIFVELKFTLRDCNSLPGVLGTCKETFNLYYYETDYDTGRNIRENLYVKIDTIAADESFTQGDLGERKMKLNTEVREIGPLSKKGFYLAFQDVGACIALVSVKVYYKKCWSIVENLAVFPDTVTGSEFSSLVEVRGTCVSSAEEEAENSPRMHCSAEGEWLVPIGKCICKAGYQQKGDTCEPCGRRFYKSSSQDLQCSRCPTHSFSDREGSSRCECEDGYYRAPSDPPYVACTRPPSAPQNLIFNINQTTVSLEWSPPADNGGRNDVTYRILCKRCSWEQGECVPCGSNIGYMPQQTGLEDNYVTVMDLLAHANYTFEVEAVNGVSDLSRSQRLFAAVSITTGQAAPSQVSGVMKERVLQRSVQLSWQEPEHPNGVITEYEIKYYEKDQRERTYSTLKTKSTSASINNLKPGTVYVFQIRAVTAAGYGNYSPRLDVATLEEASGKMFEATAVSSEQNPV

mEphA4 = biological target: T3, mEphA4 (mouse, UniProt Q03137); test: ELISA, receptor coated on the plate, purified IgG, anti-human kappa-HRP
T3 construct: part of an Fc fusion; also called rmuEphA4-Fc

mEphA7 = biological target: T4, mEphA7 (mouse, UniProt Q61772); test: as above
T4 construct: part of an Fc fusion; also called rmuEphA7-Fc
T4 sequence (receptor-Fc fusion, looked up): T2 sequence (receptor-Fc fusion, looked up)

r rat EphA5 = biological target: T5, r rat EphA5 (rat, UniProt P54757); test: Activity ELISA, receptor coated on the plate, purified IgG, anti-human kappa-HRP
T5 construct: part of an Fc fusion; also called rEphA5; rratEphA5-Fc
Method: (§1) Secondary screening of IgG constructs of affinity optimized combinatorial variants with additional EphA receptors: With purified IgG constructs of the nine combinatorial variants, additional secondary screening assays were performed using the Activity ELISA (see above) and recombinant EphA receptor proteins. More precisely, Nunc Maxisorp plates were coated with the following rEphA proteins: rhuEphAl-Fc; 0.5 μg/well, rmuEphA2-Fc; 0.5 μg/well, rmuEphA3-Fc: 0.1 μg/well, rmuEphA4-Fc; 0.1 μg/well, rratEphA5-Fc; 0.5 μg/well, rmuEphA6-Fc; 0.5 μg/well, rmuEphA7-Fc; 0.1 μg/well, rEphA8; 0.2 μg/well (all R&D Systems), rhuEphA2-Fc; 0.5 μg/well, and rhuEphA4-His; 0.1 μg/well (both produced at MedImmune, Inc.). Plates were blocked with 3% BSA+0.1% Tween20 for 2 h. […] Incubation with a goat anti-human kappa horseradish peroxydase (HRP) conjugate then followed. HRP activity was detected with TMB substrate and the reaction quenched with 0.2 M H₂SO₄. Plates were read at 450 nm. Data was analyzed by normalizing Fab concentrations to the corresponding activity data (see FIGS. 12A-12J and 14).

r murine EphA8 = biological target: T6, r murine EphA8 (mouse, UniProt O09127); test: Activity ELISA, receptor coated on the plate, purified IgG, anti-human kappa-HRP, OD 450 nm
T6 construct: recombinant soluble protein coated on the plate; also called mEphA8; rEphA8
T6 sequence (receptor construct, looked up): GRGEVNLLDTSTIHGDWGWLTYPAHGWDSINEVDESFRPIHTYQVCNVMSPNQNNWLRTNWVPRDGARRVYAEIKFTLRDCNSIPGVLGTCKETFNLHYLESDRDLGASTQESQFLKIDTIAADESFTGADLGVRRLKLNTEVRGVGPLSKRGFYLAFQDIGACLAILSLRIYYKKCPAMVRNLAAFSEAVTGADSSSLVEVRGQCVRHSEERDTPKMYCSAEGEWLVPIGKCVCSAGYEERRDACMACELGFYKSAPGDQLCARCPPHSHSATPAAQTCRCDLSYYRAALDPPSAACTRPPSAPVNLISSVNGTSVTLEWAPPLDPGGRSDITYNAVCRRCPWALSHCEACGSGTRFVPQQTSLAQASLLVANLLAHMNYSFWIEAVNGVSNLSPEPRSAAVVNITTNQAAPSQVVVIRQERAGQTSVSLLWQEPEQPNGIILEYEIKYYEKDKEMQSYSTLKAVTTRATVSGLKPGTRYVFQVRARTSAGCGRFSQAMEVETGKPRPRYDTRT
Method: as §1

[1] = biological target: T7, Human EphA4-Fc fusion protein (human, UniProt P54764 20-547); test: BIAcore, IgG immobilized on the sensor chip, EphA4-Fc as analyte; comment on the sheet: off-rate below LOD
T7 construct: not shown: Fc portion of a human IgG1
Method: FIG. 15A-15B. […] Binding affinities were measured using the BIAcore assay. […] Variant kinetic measurements for human EphA4 and were obtained using BIAcore with immobilized variant antibodies and human EphA4-Fc and EphA4-His as analytes.

T7 sequence (P54764 20-547): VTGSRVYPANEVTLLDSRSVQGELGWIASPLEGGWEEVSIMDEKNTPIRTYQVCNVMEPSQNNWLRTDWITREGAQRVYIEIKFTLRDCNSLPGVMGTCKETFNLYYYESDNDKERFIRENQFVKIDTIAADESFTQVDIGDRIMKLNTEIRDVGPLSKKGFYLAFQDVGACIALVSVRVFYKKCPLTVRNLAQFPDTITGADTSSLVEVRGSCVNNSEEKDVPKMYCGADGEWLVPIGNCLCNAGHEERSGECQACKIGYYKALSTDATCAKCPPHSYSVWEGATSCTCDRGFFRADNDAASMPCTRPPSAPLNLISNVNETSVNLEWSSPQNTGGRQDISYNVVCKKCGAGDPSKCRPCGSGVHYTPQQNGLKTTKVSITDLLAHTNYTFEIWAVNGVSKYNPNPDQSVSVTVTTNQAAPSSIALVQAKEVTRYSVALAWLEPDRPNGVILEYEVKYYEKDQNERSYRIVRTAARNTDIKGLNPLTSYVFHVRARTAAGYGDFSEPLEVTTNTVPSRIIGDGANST
T1 sequence (Q03137 20-547 limits assumed): as the sequence (P54764 20-547) above, with P59A, N121S, V124G, R250Q, S251N, T270S, K378R, N406S counted along it
T3 sequence (Q03137 20-547 limits assumed): as the sequence (P54764 20-547) above, with P59A, N121S, V124G, R250Q, S251N, T270S, K378R, N406S counted along it
T5 sequence (P54757 27-575 limits assumed): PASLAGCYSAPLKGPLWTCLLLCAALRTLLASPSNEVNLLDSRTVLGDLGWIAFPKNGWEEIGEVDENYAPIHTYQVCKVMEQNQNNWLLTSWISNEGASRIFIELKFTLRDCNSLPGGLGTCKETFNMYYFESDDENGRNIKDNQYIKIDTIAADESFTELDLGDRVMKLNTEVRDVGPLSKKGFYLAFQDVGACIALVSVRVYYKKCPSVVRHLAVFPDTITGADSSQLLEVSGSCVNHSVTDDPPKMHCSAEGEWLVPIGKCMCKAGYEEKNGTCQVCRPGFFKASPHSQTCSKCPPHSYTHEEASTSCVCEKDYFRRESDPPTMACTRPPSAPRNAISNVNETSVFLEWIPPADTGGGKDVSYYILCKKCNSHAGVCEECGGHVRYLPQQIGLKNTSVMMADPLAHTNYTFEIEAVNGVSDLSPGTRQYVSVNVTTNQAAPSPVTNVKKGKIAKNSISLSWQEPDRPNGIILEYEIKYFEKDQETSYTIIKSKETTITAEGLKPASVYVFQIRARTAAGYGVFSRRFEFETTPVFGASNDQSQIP

binding result (r murine EphA4): binds
binding result (r murine EphA7): binds
binding result (mEphA4): binds
binding result (mEphA7): binds
binding result (r rat EphA5): binds
binding result (r murine EphA8): binds
Kd [1]: 6 pM
koff [1]: 8.66e-07 s⁻¹
kon [1]: 147000 M⁻¹ s⁻¹
B1: 3A12 IgG1 (affinity optimized combinatorial variant of mAb GEA44 in human IgG1 format) (antibody, V domains shown)
VH: QVQLLQSGAEVKKPGASVKVPCKASGYTFTSRAMSWVRQAPGQGLEWMGWINTNTGNPTYAQGFTGRFVFSLDTSVSTAYLQISSLKAEDTAVYYCARVRFTVYGDGMDVWGQGTLVTVSS
VL: EIVLTQSPATLSVSPGERATLSCRASQSVSSNLAWYQQKPGQAPRLLIYGASTWATGIPDRFSASGSGTDFTLTISRVEPEDFAVYYCQQYGPSWTFGQGTKVEIK
